Data on one substance can be found in article PMC3247260.

The target of this assay is K63-linked diUb (UniProt P0CG48). Kind of assay: ITC; USP13-UBA12 (1.25 mM stock) injected into K63-, K48-, linear diUb (0.1 mM) or monoUb (0.2 mM), 25 injections of 1.5 µL; 50 mM Tris, 150 mM NaCl, pH 7.5; 25°C. A general note: Isothermal titration calorimetry measures the heat released or taken up as one component is titrated into another.

“tandem UBA domains of USP13 (USP13-UBA12, residues 652-776) (from UniProt Q92995 652-776) (domain or fragment)”: the Kd is 1000 nM.

One may read the Kd as a measure of binding affinity in units of concentration. The low end stands for tighter binding, the high end for weaker binding.
